Assay results published in PMC10350915, “Development of a New Class of CXCR4-Targeting Radioligands Based on the Endogenous Antagonist EPI-X4 for Oncological Applications” (Journal of Medicinal Chemistry, 2023).
Where two headings read alike, the source gives them in different places. Square brackets hold non-standard residues; d marks the D form. Side chains are listed from the residue outwards. Ends that are not written are not given here. Peptide text beside a SMILES is read from it. * marks the point of attachment. DOTA = O=C(O)CN1CCN(CC(=O)O)CCN(CC(=O)*)CCN(CC(=O)O)CC1; Palmitoyl = CCCCCCCCCCCCCCCC(=O)*

What was measured:
[1] = type: in vitro ADME, human
Description: Representative radiochromatograms are provided in Figure S25 for ^177Lu-1, ^177Lu-2, and ^177Lu-7. This included ^177Lu-9 despite its fatty acid chain.
(§1) Figure 3 Stability of the ^177Lu ligands in human plasma at 37 °C, expressed as % of intact radioligand over time, assessed by radio-HPLC. The % of plasma protein binding (PPB) after 60 min incubation is provided in parenthesis and it is expressed as the % of radioligand in the protein fraction (pellet) versus the total activity in the plasma. TEXT PRINTED IN THE PICTURE: ^177Lu-1: PPB: 35% | ^177Lu-2: PPB: 22% | ^177Lu-5: PPB: 42% | ^177Lu-6: PPB: 38% | ^177Lu-7: PPB: 39% | ^177Lu-9: PPB: 37%
To 1 mL of fresh human plasma, previously equilibrated at 37 °C, 500 pmol (8–10 MBq) of each ^177Lu-labeled ligand was added. The mixture was incubated at 37 °C for different time points (0, 15, 30, 60, and 120 min). At each time point, a 100 μL aliquot was removed and treated with 1.5 excess (v/v) of acetonitrile, to precipitate plasma proteins, followed by centrifugation for 5 min at 3500 rpm. The supernatant was collected and the process of protein precipitation was repeated. Afterward, 100 μL from the supernatant was taken, diluted with water at a ratio of 1:10 (v/v), and injected into radio-HPLC. The radioligand (in)stability was assessed by quantifying the percentage of intact radioligand over time.

[2] = type: in vitro ADME; conditions: human; for plasma protein binding (PPB): 60 min; for fraction unbound at 60 min: plasma, plasma protein binding (PPB)
Description: as §1
For the determination of plasma protein binding (PPB), 100 μL from the plasma incubated with the ^177Lu ligand was removed and measured in a γ-counter (total radioactivity). Protein precipitation and separation followed, as described above. The supernatant and the protein pellet were then measured in a γ-counter. The percentage of plasma protein binding was calculated as the ratio between the protein-bound radioactivity and the total radioactivity in the plasma.

[3] = biological target: T1, C-X-C motif chemokine receptor 4 (CXCR4) on Jurkat cells (human (endogenous in Jurkat), UniProt P61073 1-352); assay: flow cytometry on cells; competition with APC-labelled anti-CXCR4 antibody clone 12G5 at a fixed concentration close to its KD; Jurkat cells, 50,000 cells/well; ligands serially diluted in PBS; 4 °C, 2 h; PBS with 1% FBS; conditions: one partner purified
T1 construct: CXCR4 naturally expressed at high levels on Jurkat cells (human T lymphoblasts); source: endogenous, on Jurkat cells (clone E6-1, ATCC)

[4] = biological target: T2, C-X-C motif chemokine receptor 4 (CXCR4) on Ghost-CXCR4 cells (UniProt P61073 1-352); assay: flow cytometry on cells; competition with APC-labelled anti-CXCR4 antibody clone 12G5 at a fixed concentration close to its KD; Ghost-CXCR4 cells, 50,000 cells/well; ligands serially diluted in PBS; 4 °C, 2 h; PBS with 1% FBS; conditions: one partner purified
T2 construct: CXCR4 stably expressed in Ghost cells (NIH HIV Reagent Program); source: Ghost cells (human osteosarcoma cell line) stably transfected with CXCR4, also expressing CD4; on cells

[5] = biological target: T3, C-X-C motif chemokine receptor 4 (CXCR4) on Jurkat cells (human (endogenous in Jurkat), UniProt P61073 1-352)
T3 chain: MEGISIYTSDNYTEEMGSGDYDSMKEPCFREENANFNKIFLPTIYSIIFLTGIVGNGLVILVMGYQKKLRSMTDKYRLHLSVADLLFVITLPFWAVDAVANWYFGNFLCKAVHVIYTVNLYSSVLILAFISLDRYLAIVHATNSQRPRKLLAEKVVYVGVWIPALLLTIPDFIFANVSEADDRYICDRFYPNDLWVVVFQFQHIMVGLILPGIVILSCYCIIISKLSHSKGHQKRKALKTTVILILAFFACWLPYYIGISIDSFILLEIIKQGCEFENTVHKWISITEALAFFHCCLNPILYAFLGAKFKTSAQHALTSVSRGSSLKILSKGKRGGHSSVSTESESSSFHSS

[6] = biological target: T2, C-X-C motif chemokine receptor 4 …; assay: radioligand binding; cellular uptake (surface-bound and internalised) of 177Lu ligands (1 nM) in Ghost-CXCR4 cells, 37 °C, 15-60 min, DMEM with 5% BSA; nonspecific uptake with 100,000-fold excess of AMD3100 subtracted; conditions: one partner purified

For `CC(C)C[C@@H](N)C(=O)N[C@@H](CC(C)C)C(=O)N[C@@H](CCCNC(=N)N)C(=O)N[C@@H](Cc1c[nH]c2ccccc12)C(=O)N[C@@H](CO)C(=O)N[C@@H](CCCNC(=N)N)C(=O)N[C@@H](CCCCN)C(=O)N[C@@H](CC(C)C)C(=O)N1CCC[C@H]1C(=O)N[C@@H](CS)C(=O)N[C@H](C(=O)N[C@@H](CO)C(=O)N[C@@H](CCCCNC(=O)CN1CCN(CC(=O)O)CCN(CC(=O)O)CCN(CC(=O)O)CC1)C(=O)O)C(C)C` [^177Lu-6, metal not drawn], the “time to complete degradation in human plasma” value (“time to complete degradation” below) [1] was at most 15 min, the “plasma protein binding (PPB)” value [2] was about 40% and the fraction unbound at 60 min [2] was 0.62.

In the case of `CC[C@H](C)[C@H](N)C(=O)N[C@@H](CC(C)C)C(=O)N[C@@H](CCCNC(=N)N)C(=O)N[C@@H](Cc1c[nH]c2ccccc12)C(=O)N[C@@H](CO)C(=O)N[C@@H](CCCNC(=N)N)C(=O)N[C@@H](CCCCN)C(=O)N[C@@H](CC(C)C)C(=O)N1CCC[C@H]1C(=O)N[C@@H](CS)C(=O)N[C@H](C(=O)N[C@@H](CO)C(=O)N[C@@H](CCCCNC(=O)CN1CCN(CC(=O)O)CCN(CC(=O)O)CCN(CC(=O)O)CC1)C(=O)O)C(C)C` [^177Lu-1, metal not drawn], the “time to complete degradation” value [1] is reported as at most 15 min and the fraction unbound at 60 min [2] is reported as 0.65.

For `CC[C@H](C)[C@H](N)C(=O)N[C@@H](CC(C)C)C(=O)N[C@@H](CCCNC(=N)N)C(=O)N[C@@H](Cc1c[nH]c2ccccc12)C(=O)N[C@@H](CO)C(=O)N[C@@H](CCCNC(=N)N)C(=O)N[C@@H](CCCCNC(=O)CN1CCN(CC(=O)O)CCN(CC(=O)O)CCN(CC(=O)O)CC1)C(N)=O` [^177Lu-5, metal not drawn] (H-ILRWSRK(DOTA)-NH2; N-terminus assumed), the “time to complete degradation” value [1] was at most 15 min, the “plasma protein binding (PPB)” value [2] was about 40% and the fraction unbound at 60 min [2] was 0.58.

B1: ligand-7 (peptide)
peptide: [dI]LRWSRKK(DOTA)-NH2
modifications: N-terminus assumed
SMILES: CC[C@@H](C)[C@@H](N)C(=O)N[C@@H](CC(C)C)C(=O)N[C@@H](CCCNC(=N)N)C(=O)N[C@@H](Cc1c[nH]c2ccccc12)C(=O)N[C@@H](CO)C(=O)N[C@@H](CCCNC(=N)N)C(=O)N[C@@H](CCCCN)C(=O)N[C@@H](CCCCNC(=O)CN1CCN(CC(=O)O)CCN(CC(=O)O)CCN(CC(=O)O)CC1)C(N)=O
notes: as ligand-4 with isoleucine 1 substituted by D-isoleucine; also called DOTA conjugate of JM#173; source: synthetic peptide (Fmoc solid phase synthesis, RP-HPLC purified)
B1 gave an IC50 [3] of 433 nM and an IC50 [4] of 570 nM.

B2: ligand-3 (peptide)
peptide: ILRWSRKLPK(DOTA)-NH2
modifications: N-terminus assumed
SMILES: CC[C@H](C)[C@H](N)C(=O)N[C@@H](CC(C)C)C(=O)N[C@@H](CCCNC(=N)N)C(=O)N[C@@H](Cc1c[nH]c2ccccc12)C(=O)N[C@@H](CO)C(=O)N[C@@H](CCCNC(=N)N)C(=O)N[C@@H](CCCCN)C(=O)N[C@@H](CC(C)C)C(=O)N1CCC[C@H]1C(=O)N[C@@H](CCCCNC(=O)CN1CCN(CC(=O)O)CCN(CC(=O)O)CCN(CC(=O)O)CC1)C(N)=O
notes: truncated JM#21 derivative with added C-terminal K(DOTA)-NH2; source: synthetic peptide (Fmoc solid phase synthesis, RP-HPLC purified)
Work on B2 yielded an IC50 [3] of 45 nM and an IC50 [4] of 98 nM.

B3: ^natLu-1 (peptide)
peptide: ILRWSRKLPCVSK(DOTA)
modifications: also: natLu complexed by DOTA
notes: natLu and 177Lu complexes are written as one molecule; they differ only in the isotope; also called ^177Lu-1; Lu complex of ligand-1 (monomer); source: synthetic peptide, complexed with natLuCl3, monomer isolated by semipreparative RP-HPLC; ^177Lu form labelled with 177LuCl3 in the presence of DTT
For B3, the IC50 [5] was 15 nM, the “cellular uptake (% of applied activity)” value [6] was ~1 % of applied activity and the IC50 [3] was 208 nM. The IC50 [4] was 278 nM.

B4: EPI-X4 (endogenous peptide inhibitor of CXCR4) (peptide)
peptide: LVRYTKKVPQVSTPTL
notes: 16-mer fragment of human serum albumin; also called wild-type EPI-X4; source: synthetic peptide
For B4, the IC50 [3] was 1780 nM and the IC50 [4] was 4540 nM.

B5: ^natLu-5 (peptide)
peptide: ILRWSRK(DOTA)-NH2
modifications: also: natLu complexed by DOTA
notes: natLu and 177Lu complexes are written as one molecule; they differ only in the isotope; also called ^177Lu-5; Lu complex of ligand-5; source: synthetic peptide, complexed with natLuCl3; ^177Lu form labelled with 177LuCl3
For B5, the IC50 [5] was 104 nM, the “cellular uptake (% of applied activity)” value [6] was ~1 % of applied activity and the IC50 [3] was 113 nM. For the same molecule, the IC50 [4] was 197 nM.

B6: ^natLu-7 (peptide)
peptide: [dI]LRWSRKK(DOTA)-NH2
modifications: also: natLu complexed by DOTA
notes: natLu and 177Lu complexes are written as one molecule; they differ only in the isotope; also called ^177Lu-7; Lu complex of ligand-7; source: synthetic peptide, complexed with natLuCl3; ^177Lu form labelled with 177LuCl3
B6 showed an IC50 [5] of 272 nM, an IC50 [3] of 435 nM and an IC50 [4] of 481 nM.

IVRWSKK(Palmitoyl)VPCSK(DOTA) (also: natLu complexed by DOTA) [^natLu-8] gave an IC50 [3] of 18 nM and an IC50 [4] of 30 nM.

B7: ligand-5 (peptide)
peptide: ILRWSRK(DOTA)-NH2
modifications: N-terminus assumed
SMILES: CC[C@H](C)[C@H](N)C(=O)N[C@@H](CC(C)C)C(=O)N[C@@H](CCCNC(=N)N)C(=O)N[C@@H](Cc1c[nH]c2ccccc12)C(=O)N[C@@H](CO)C(=O)N[C@@H](CCCNC(=N)N)C(=O)N[C@@H](CCCCNC(=O)CN1CCN(CC(=O)O)CCN(CC(=O)O)CCN(CC(=O)O)CC1)C(N)=O
notes: shortest truncated JM#21 derivative; DOTA on its own K7; source: synthetic peptide (Fmoc solid phase synthesis, RP-HPLC purified)
For B7, the IC50 [3] was 120 nM and the IC50 [4] was 424 nM.

B8: EPI-X4 JM#21 (peptide)
peptide: ILRWSRKLPCVS
notes: activity-optimised, truncated 12-mer derivative of EPI-X4 (rational design); source: synthetic peptide
Work on B8 yielded an IC50 [3] of 136 nM and an IC50 [4] of 183 nM.

B9: ligand-1 (peptide)
peptide: ILRWSRKLPCVSK(DOTA)
notes: source: synthetic peptide (Fmoc solid phase synthesis, RP-HPLC purified)
For B9, the IC50 [3] was 303 nM and the IC50 [4] was 254 nM.

B10: ligand-2 (peptide)
peptide: ILRWSRKLPSVSK(DOTA)
notes: as ligand-1 with serine instead of cysteine at position 10; source: synthetic peptide (Fmoc solid phase synthesis, RP-HPLC purified)
B10 showed an IC50 [3] of 172 nM and an IC50 [4] of 258 nM.

B11: ^natLu-6 (peptide)
peptide: [dL]LRWSRKLPCVSK(DOTA)
modifications: also: DOTA complexed with natLu
notes: natLu and 177Lu complexes are written as one molecule; they differ only in the isotope; also called ^177Lu-6; Lu complex of ligand-6 (monomer); source: synthetic peptide, complexed with natLuCl3, monomer isolated by semipreparative RP-HPLC; ^177Lu form labelled with 177LuCl3 in the presence of DTT
With B11 the “cellular uptake (% of applied activity)” value [6] was ~1 % of applied activity, the IC50 [3] was 465 nM and the IC50 [4] was 1010 nM.

B12: ligand-6 (peptide)
peptide: [dL]LRWSRKLPCVSK(DOTA)
notes: as ligand-1 with isoleucine 1 substituted by D-leucine; source: synthetic peptide (Fmoc solid phase synthesis, RP-HPLC purified)
In the case of B12, the IC50 [3] is reported as 428 nM and the IC50 [4] is reported as 747 nM.

B13: ^natLu-2 (peptide)
peptide: ILRWSRKLPSVSK(DOTA)
modifications: also: natLu complexed by DOTA
notes: natLu and 177Lu complexes are written as one molecule; they differ only in the isotope; also called ^177Lu-2; Lu complex of ligand-2; source: synthetic peptide, complexed with natLuCl3; ^177Lu form labelled with 177LuCl3
With B13 the IC50 [5] was 65 nM, the “cellular uptake (% of applied activity)” value [6] was ~1 % of applied activity and the IC50 [3] was 49 nM.

B14: ligand-4 (peptide)
peptide: ILRWSRKK(DOTA)-NH2
notes: as for B2
B14 gave an IC50 [3] of 161 nM and an IC50 [4] of 295 nM.

B15: ^natLu-9 (peptide)
peptide: [dL]LRWSRK([Glu-Palmitoyl])K(DOTA)-NH2
modifications: also: natLu complexed by DOTA
notes: natLu and 177Lu complexes are written as one molecule; they differ only in the isotope; also called ^177Lu-9; Lu complex of ligand-9; source: synthetic peptide, complexed with natLuCl3; ^177Lu form labelled with 177LuCl3
B15 gave an IC50 [5] of 20 nM, an IC50 [3] of 4 nM and an IC50 [4] of 6 nM.

B16: ligand-9 (peptide)
peptide: [dL]LRWSRK([Glu-Palmitoyl])K(DOTA)-NH2
notes: main chain of 8 residues; source: synthetic peptide (Fmoc solid phase synthesis, RP-HPLC purified)
B16 gave an IC50 [3] of 13 nM and an IC50 [4] of 6 nM.
